target: T1, HLA-A*0201 loaded with the Carcinoembryonic antigen (CEA)-derived … peptide (biotinylated on the C-terminal biotinylation tag); assay: SPR (Biacore), Example 4

Binder | Kd | koff
SEQ ID NO 73 (receptor) MHLPKPTLWAEPGSVITMDQPVTLRCQGGQETQEYRLYREKKTAPWITRIPQELVKKGQFPIPSITWEHAGRYRCVIQRGTAGRSESSDPLELVVTGVYIKPTLSAQPSPVVNSGGNVTLQCDSQVAFDGFILCKEGEDEHPQCLNSQPHARGSSRAIFSVGPVSPSRRWWYRCYAYDSNSPYEWSLPSDLLELDVDG | ≤ 1000 nM | ≤ 2 s⁻¹
SEQ ID NO 78 (receptor) MHLPKPTLWAEPGSVITMDQPVTLRCQGGQETQEYRLYREKKTAPWITRIPQELVKKGQFPIPSITWEHAGRYRCYYGSDTSQWSASSDPLELVVTGVYIKPTLSAQPSPVVNSGGNVTLQCDSQVAFDGFILCKEGEDEHPQCLNSQPHARGSSRAEFSVGPVSPSRRWWYRCYAYDSNSPYEWSLPSDLLELDVDG | ≤ 1000 nM | ≤ 2 s⁻¹
SEQ ID NO 74 (receptor) MHLPKPTLWAEPGSVITMDQPVTLRCQGGQETQEYRLYREKKTAPWITRIPQELVKKGQFPIPSITWEHAGRYRCYYGGQEGARSESSDPLELVVTGVYIKPTLSAQPSPVVNSGGNVTLQCDSQVAFDGFILCKEGEDEHPQCLNSQPHARGSSRAIFSVGPVSPSRRWWYRCYAYDSNSPYEWSLPSDLLELDVDG | ≤ 1000 nM | ≤ 2 s⁻¹
SEQ ID NO 75 (receptor) MHLPKPTLWAEPGSVITMDQPVTLRCQGGQETQEYRLYREKKTAPWITRIPQELVKKGQFPIPSITWEHAGRYRCYYGTQTSQWSASSDPLELVVTGVYIKPTLSAQPSPVVNSGGNVTLQCDSQVAFDGFILCKEGEDEHPQCLNSQPHARGSSRAIFSVGPVSPSRRWWYRCYAYDSNSPYEWSLPSDLLELDVDG | ≤ 1000 nM | ≤ 2 s⁻¹
SEQ ID NO 77 (receptor) MHLPKPTLWAEPGSVITMDQPVTLRCQGGQETQEYRLYREKKTAPWITRIPQELVKKGQFPIPSITWEHAGRYRCYYGSDTSQWSASSDPLELVVTGVYIKPTLSAQPSPVVNSGGNVTLQCDSQVAFDGFILCKEGEDEHPQCDNSQPHARGSSRAIFSVGPVSPSRRWWYRCYAYDSNSPYEWSLPSDLLELDVDG | ≤ 1000 nM | ≤ 2 s⁻¹
SEQ ID NO 76 (receptor) MGHLPKPTLWAEPGSVITMDQPVTLRCQGGQETQQYRLYREKKTAPWITRIPQELVKKGQFPIPSITWEHAGRYRCYYGSDTRQWSASSDPLELVVTGVYIKPTLSAQPSPVVNSGGNVTLQCDSQVAFDGFILCKEGEDDHPQCLNSQPHARGSSRAIFSVGPVSPSRRWRYRCYAYDSNSPYEWSLPSDLLELDVDG | ≤ 1000 nM | ≤ 2 s⁻¹

Now from value to binder:

Kd | koff | Binder
≤ 1000 nM | ≤ 2 s⁻¹ | SEQ ID NO 80 (receptor) MHLPKPTLWAEPGSVITMDQPVTLRCQGGQETQEYRLYREKKTAPWITRIPQELVKKGQFPIPSITWEHAGRYRCYYGSDTSQWSASSDPLELVVTGVYIKPTLSAQPSPVVNSGGNVTLQCDSQVAFDGFILSKEGEDEHPQSLNSQPHARGSSRAIFSVGPVSPSRRWWYRCYAYDSNSPYEWSLPSDLLELDVDG
≤ 1000 nM | ≤ 2 s⁻¹ | SEQ ID NO 79 (receptor) MHLPKPTLWAEPGSVITMDQPVTLRCQGGQETQEYRLYREKKTAPWITRIPQELVKKGQFPIPSITWEHAGRYRCYYGSDTSQWSASSDPLELVVTGVYIKPTLSAQPSPVVNSGGNVTLQCDSQVAFDGFILCKEGEDEHPQCLNSQPHARGSSRAIFSVGPVSPSRRWWYRCYAYDSNSPYEWSDPSDLLELDVDG

target: T1, HLA-A*0201 loaded with the …; assay: SPR (Biacore), method of Example 4

koff | Binder
2.4 s⁻¹ | soluble truncated variant of the Wild-Type ILT-2 molecule (extracellular domains D1 and D2) (receptor, also called soluble wild-type ILT-2 polypeptide; soluble two domain form of the wild-type ILT-2) MGHLPKPTLWAEPGSVITQGSPVTLRCQGGQETQEYRLYREKKTAPWITRIPQELVKKGQFPIPSITWEHAGRYRCYYGSDTAGRSESSDPLELVVTGAYIKPTLSAQPSPVVNSGGNVTLQCDSQVAFDGFILCKEGEDEHPQCLNSQPHARGSSRAIFSVGPVSPSRRWWYRCYAYDSNSPYEWSLPSDLLELLVL

target: T1, HLA-A*0201 loaded with the …; assay: SPR (Biacore 3000), biotinylated pMHC immobilised on streptavidin

Kd | Binder
~6000 nM | soluble truncated variant of the Wild-Type ILT-2 molecule (extracellular domains D1 and D2) (receptor, also called soluble wild-type ILT-2 polypeptide; soluble two domain form of the wild-type ILT-2) MGHLPKPTLWAEPGSVITQGSPVTLRCQGGQETQEYRLYREKKTAPWITRIPQELVKKGQFPIPSITWEHAGRYRCYYGSDTAGRSESSDPLELVVTGAYIKPTLSAQPSPVVNSGGNVTLQCDSQVAFDGFILCKEGEDEHPQCLNSQPHARGSSRAIFSVGPVSPSRRWWYRCYAYDSNSPYEWSLPSDLLELLVL
